Assay results as given in US20210317186A1 (BRIGHAM AND WOMEN S HOSPITAL, published 2021).
Substitutions are numbered along the chain they refer to.

T1: endogenous CD5L (mouse; in serum or secreted by bone marrow derived dendritic cells) (mouse, UniProt Q9QWK4 22-352)
T1 construct: also called natural CD5L; AIM
T1 sequence (looked up): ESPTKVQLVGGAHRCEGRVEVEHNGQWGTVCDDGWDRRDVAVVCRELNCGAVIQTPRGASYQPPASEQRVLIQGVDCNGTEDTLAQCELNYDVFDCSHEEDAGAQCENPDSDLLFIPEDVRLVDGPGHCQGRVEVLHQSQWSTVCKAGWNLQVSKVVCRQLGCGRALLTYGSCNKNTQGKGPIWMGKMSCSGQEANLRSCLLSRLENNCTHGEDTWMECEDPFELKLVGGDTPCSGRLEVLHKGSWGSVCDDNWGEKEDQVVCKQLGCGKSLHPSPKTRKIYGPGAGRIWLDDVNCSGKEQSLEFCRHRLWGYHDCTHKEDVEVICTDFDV

B1: endogenous p40 (IL-12 p40, Il12b; mouse) (ligand, UniProt P43432 23-335, looked up)
chain: MWELEKDVYVVEVDWTPDAPGETVNLTCDTPEEDDITWTSDQRHGVIGSGKTLTITVKEFLDAGQYTCHKGGETLSHSHLLLHKKENGIWSTEILKNFKNKTFLKCEAPNYSGRFTCSWLVQRNMDLKFNIKSSSSSPDSRAVTCGMASLSAEKVTLDQRDYEKYSVSCQEDVTCPTAEETLPIELALEARQQNKYENYSTSFFIRDIIKPDPPKNLQMKPLKNSQVEVSWEYPDSWSTPHSYFSLKFFVRIQRKKEKMKETEEGCNQKGAFLVEKTSTEVQCKGGNVCVQAQDRYYNSSCSKWACVPCRVRS
notes: also called interleukin 12B
B2: recombinant CD5L with His tag at C-terminus (mouse, mCD5L) (ligand)
chain: T1 sequence (looked up) with N176S
notes: Made by Biolegend in 293E cells; The transfection gave a monomer and a homodimer fraction on size exclusion; also called soluble CD5L; sCD5L; not shown: His tag at C-terminus

Columns and labels:
[1] = molecular target: T1, endogenous CD5L (mouse; in serum or …); experiment: sandwich ELISA on mouse serum, capture with anti-IL-12 p40, detection with anti-CD5L
Description: Serum was collected kinetically from wildtype and Cd5l^{-/-} mice with DSS-induced colitis (2% DSS in drinking water for 6 days followed by 7 days of normal water) and the level of CD5L:p40 was measured using an ELISA assay. In the ELISA assay anti-IL-12 p40 was used to capture the heterodimer and enzyme linked anti-CD5L was used to detect the heterodimer.
Preliminary screens were conducted to determine what signals could induce CD5L homodimer and CD5L:p40 heterodimer. In particular, bone marrow derived dendritic cells were stimulated with TLR ligands for 24 hours and the supernatant was analyzed for CD5L:p40 secretion by ELISA.

[2] = molecular target: the molecule itself; experiment: size exclusion chromatography (Superdex S200) of His-tagged CD5L from 293E supernatant
Description: Recombinant protein CD5L monomer and homodimer was purified from the supernatant of 293E cells transfected with a CD5L expression vector. Recombinant mCD5L:p40 was recovered from the supernatant of 293E cells transfected with the CD5L:p40 expression vector. After harvesting transfected 293E cells by centrifugation, the protein was affinity purified from the supernatant using Ni Sepharose 6 Fast Flow resin (GE Healthcare). After binding the protein to resin, the resin was washed with 20 mM Tris, 0.3M NaCl, pH 8.0 and the protein eluted using 20 mM Tris, 0.3M NaCl, 0.4M Imidazole, pH 8.0. The protein was further polished by a […] sizing exclusion column (GE Healthcare) in buffer 10 mM NaHPO4, 0.15M NaCl, pH 7.2.

Row | Binder | binding result [1] | binding result [2]
1 | B1 | binds | 
2 | B2 |  | binds
